PMC10085699
Residue numbers refer to the chain shown, from its start.

How the values were obtained:
Assay in all cases: EMSA
[1] = target: T1, SETX-HD-DE/AA (Homo sapiens, UniProt Q7Z333 1674-2677, D2181A;E2182A)
T1 sequence: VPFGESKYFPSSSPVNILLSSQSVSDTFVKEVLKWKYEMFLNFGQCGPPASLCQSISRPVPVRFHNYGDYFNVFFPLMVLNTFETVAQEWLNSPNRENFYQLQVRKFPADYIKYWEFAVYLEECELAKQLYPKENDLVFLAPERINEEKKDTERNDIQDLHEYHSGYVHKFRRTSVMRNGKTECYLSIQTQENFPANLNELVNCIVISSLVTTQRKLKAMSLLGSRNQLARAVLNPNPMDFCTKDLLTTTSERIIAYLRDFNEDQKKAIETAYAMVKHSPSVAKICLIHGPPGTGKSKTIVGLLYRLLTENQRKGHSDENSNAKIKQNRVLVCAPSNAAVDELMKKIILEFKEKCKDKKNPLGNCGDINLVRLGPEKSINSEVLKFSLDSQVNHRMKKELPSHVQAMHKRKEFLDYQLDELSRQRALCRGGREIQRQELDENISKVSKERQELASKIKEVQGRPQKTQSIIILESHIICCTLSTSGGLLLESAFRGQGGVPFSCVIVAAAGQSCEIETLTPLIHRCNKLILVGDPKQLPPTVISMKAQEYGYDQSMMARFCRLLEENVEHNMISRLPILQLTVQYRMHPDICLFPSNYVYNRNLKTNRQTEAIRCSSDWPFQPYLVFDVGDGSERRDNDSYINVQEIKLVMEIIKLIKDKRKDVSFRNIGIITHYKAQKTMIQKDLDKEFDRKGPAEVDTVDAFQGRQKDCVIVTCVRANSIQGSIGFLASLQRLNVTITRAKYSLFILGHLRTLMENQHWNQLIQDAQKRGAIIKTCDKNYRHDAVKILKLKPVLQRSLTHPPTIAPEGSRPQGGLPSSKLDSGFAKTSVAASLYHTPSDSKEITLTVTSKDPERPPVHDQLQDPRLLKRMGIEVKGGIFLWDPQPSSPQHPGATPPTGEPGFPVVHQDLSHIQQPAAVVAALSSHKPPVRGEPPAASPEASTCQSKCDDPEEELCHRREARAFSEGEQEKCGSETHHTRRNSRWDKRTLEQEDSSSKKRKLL

[2] = target: T2, SETX-HD-R/H (Homo sapiens, UniProt Q7Z333 1674-2677, R2136H)
T2 sequence: T1 sequence with R463H, A508D, A509E

[3] = target: T3, Sen1-HD (UniProt Q00416 1095-1904)
T3 sequence: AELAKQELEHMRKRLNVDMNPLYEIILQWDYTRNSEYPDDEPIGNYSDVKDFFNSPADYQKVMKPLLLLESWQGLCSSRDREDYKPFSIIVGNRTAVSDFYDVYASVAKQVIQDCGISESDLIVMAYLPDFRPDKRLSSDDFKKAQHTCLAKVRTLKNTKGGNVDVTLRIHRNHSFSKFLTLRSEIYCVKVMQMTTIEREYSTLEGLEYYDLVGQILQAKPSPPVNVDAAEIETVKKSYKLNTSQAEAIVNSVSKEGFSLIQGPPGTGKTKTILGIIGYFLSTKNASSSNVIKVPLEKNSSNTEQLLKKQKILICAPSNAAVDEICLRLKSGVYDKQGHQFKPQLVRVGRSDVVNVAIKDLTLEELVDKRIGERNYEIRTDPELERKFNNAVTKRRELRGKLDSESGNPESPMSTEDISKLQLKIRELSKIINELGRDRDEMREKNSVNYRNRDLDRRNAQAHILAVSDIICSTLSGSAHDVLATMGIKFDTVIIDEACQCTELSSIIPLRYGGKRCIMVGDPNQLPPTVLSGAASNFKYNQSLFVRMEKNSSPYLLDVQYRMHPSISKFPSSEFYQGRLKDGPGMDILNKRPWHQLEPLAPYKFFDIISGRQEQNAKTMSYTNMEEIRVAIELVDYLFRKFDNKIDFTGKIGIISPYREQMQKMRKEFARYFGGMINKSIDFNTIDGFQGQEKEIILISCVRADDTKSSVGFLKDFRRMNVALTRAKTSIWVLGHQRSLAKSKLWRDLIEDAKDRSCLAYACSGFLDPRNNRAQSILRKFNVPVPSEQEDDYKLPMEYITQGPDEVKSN

Measured: binding result

B1: ssDNA pRMS679 (61 nt) (ssDNA)
DNA: TTGTCTTCTCATAAATTTAATCCCCGTACGCTTATACTCCTTTAACTACCCAGTCTTCCCG
binds: [1] | [2] | [3]
